Earlier results, collected in US20250341526A1, “NOVEL DYES” (Quantum-Si Incorporated, priority 2024, published 2025).

B1: PS507: amino acid recognition protein, SEQ ID NO: 135 (protein, listed as Sparassis crispa)
chain: MPCGHIFKKGESCFRCKDCALDDSCVLCSKCFEATDHANHNVSFFIAQQSGGCCDCGDIEAWLVPIDCPFHPV
B2: PS528: amino acid recognition protein, SEQ ID NO: 156 (protein, listed as Kluyveromyces lactis)
chain: MHSKFNHAGRICGAKFRVGEPIYRCKECSFDDTCVLCVNCFNPKDHVGHHVYTSICTEFNNGICDCGDKEAWNHELNCKGAED
B3: PS527: amino acid recognition protein, SEQ ID NO: 155 (protein, listed as Mizuhopecten yessoensis)
chain: MLCGKVFKYGEPTYSCRDCANDPTCVLCIDCFQKSAHKKHRYKMSTSGGGGYCDCGDSEAWKTAPFCSNHKA
B4: PS513: amino acid recognition protein, SEQ ID NO: 141 (protein, listed as Pyrenophora seminiperda)
chain: MPCGHIFKNGEATYRCKTCTADDTCVLCARCFDASDHEGHQVFVSVSPGNSGCCDCGDDEAWVRPVHCNIHSA
B5: PS505: amino acid recognition protein, SEQ ID NO: 133 (protein, listed as Brachionus plicatilis)
chain: MVCGRVFKSGEPSYFCRECGTDPTCVLCSICFRHSKHRYHKYVMMTSGGGGYCDCGDPEAWKSDPCCELHMP
B6: PS524: amino acid recognition protein, SEQ ID NO: 152 (protein, listed as Drosophila ficusphila)
chain: MVCGKVFKNGEPTYSCRECGVDPTCVLCVNCFKRSAHRFHKYKMSTSGGGGCCDCGDDEAWKKDHYCQLHLA
B7: PS531: amino acid recognition protein, SEQ ID NO: 159 (protein, listed as Musca domestica)
chain: MVCGKVFKIGEPTYSCRECGMDQTCVLCVNCFKQSAHRYHKYKMSTSGGGGCCDCGDEEAWKKDHYCEEHLR
B8: PS518: amino acid recognition protein, SEQ ID NO: 146 (protein, listed as Nilaparvata lugens)
chain: MVCGRVFKMGEPSYHCRECGMDATCVLCVDCFKKSSHRNHKYKMGTSIGGGCCDCGDVEAWKTEPYCEVHIA
B9: PS506: amino acid recognition protein, SEQ ID NO: 134 (protein, listed as Capitella teleta)
chain: MLCGKVFKMGELTYSCRDCGTDPTCVLCMDCFQHSAHKKHRYKMAASGGGGYCDCGDREAWKAEPFCDVHKR
B10: PS508: amino acid recognition protein, SEQ ID NO: 136 (protein)
chain: MLCGRVFKEGETVYSCRDCAIDPTCVLCIECFQKSVHKSHRYKMHASAGGGFCDCGDLEAWKTGPCCSQHDP
modifications: Anabarilius graham
B11: PS526: amino acid recognition protein, SEQ ID NO: 154 (protein, listed as Maylandia zebra)
chain: MLCGRVFKEGETVYSCRDCAIDPTCVLCMDCFQDSVHKSHRYKMHASSGGGFCDCGDVEAWKIGPYCSKHDP
B12: PS520: amino acid recognition protein, SEQ ID NO: 148 (protein, listed as Monopterus albus)
chain: MLCGRVFKEGETVYSCRDCAIDPTCVLCMDCFQDSVHKSHRYKMHASSGGGFCDCGDVEAWKIGPCCSKHDP
B13: PS512: amino acid recognition protein, SEQ ID NO: 140 (protein, listed as Mastacembelus armatus)
chain: MLCGRVFKEGETVYSCRDCAIDPTCVLCMDCFQDSVHKSHRYKMHASAGGGFCDCGDVEAWKIGPYCSKHDP
B14: PS522: amino acid recognition protein, SEQ ID NO: 150 (protein, listed as Vombatus ursinus)
chain: MLCGKVFKSGETTYSCRDCAIDPTCVLCMNCFQSSVHKNHRYKMHTSTGGGFCDCGDTEAWKTGPFCTIHEP
B15: PS525: amino acid recognition protein, SEQ ID NO: 153 (protein, listed as Mus musculus)
chain: MLCGKVFKSGETTYSCRDCAIDPTCVLCMDCFQSSVHKNHRYKMHTSTGGGFCDCGDTEAWKTGPFCVDHEP
B16: PS529: amino acid recognition protein, SEQ ID NO: 157 (protein)
chain: MLCGKVFKGGETTYSCRDCAIDPTCVLCMDCFQNSIHKNHRYKMHTSTGGGFCDCGDTEAWKTGPLCANHEP
modifications: Chelonia mydas
B17: PS501: amino acid recognition protein, SEQ ID NO: 129 (protein, listed as Amanita thiersii)
chain: MICGQIIGKGESCFRCRDCGLDESCVMCSQCFHATDHINHNVSFFVSQQPGGCCDCGDEEAWKKPMNCPYHPP
B18: PS516: amino acid recognition protein, SEQ ID NO: 144 (protein)
chain: MLCGKVFKTGEPTYSCRDCANDPTCVLCIDCFQNGAHKNHRYKMNTSGGGGYCDCGDQEAWTSHPFCNLHSP
modifications: Crassostrea gigas
B19: PS510: amino acid recognition protein, SEQ ID NO: 138 (protein, listed as Camponotus floridanus)
chain: MICGRMFKMGEPTYSCRQCGMDSTCVLCVDCFKQSAHRNHKYKMGTSSGGGCCDCGDTEAWKNEPFCKIHLA
B20: PS515: amino acid recognition protein, SEQ ID NO: 143 (protein, listed as Wasmannia auropunctata)
chain: MICGKMFKIGEPTYSCRECGMDSTCVLCVDCFKQSAHRNHKYKMGTSSGGGCCDCGDTEAWKKEPFCKTHVV
B21: PS503: amino acid recognition protein, SEQ ID NO: 131 (protein, listed as Hydra vulgaris)
chain: MFCGRLFKVGDPTYTCKDCAADPTCVFCHDCFHQSVHTKHKYKLFASQGRGGYCDCGDKEAWTNDPACNKHKE
B22: PS532: amino acid recognition protein, SEQ ID NO: 160 (protein, listed as Schizosaccharomyces cryophilus)
chain: MSCGRIFKKGEVFYRCKTCSVDSNSALCVKCFRATDHHGHETSFTISAGSGGCCDCGNSAAWIRDMPCKIHNR
B23: PS511: amino acid recognition protein, SEQ ID NO: 139 (protein, listed as Habropoda laboriosa)
chain: MICGKVFKMGEATYSCKECGVDPTCVLCADCFKQSAHRHHKYRMGTSSGGGFCDCGDIEAWKKEPFCNTHLA
B24: PS517: amino acid recognition protein, SEQ ID NO: 145 (protein)
chain: MMCGRVFKMGEPTYSCRECGVDSTCVLCVGCFQQSAHRDHKYKMGTSGGGGCCDCGDTEAWKRDPFCEIHMV
modifications: Harpegnathos saltator
B25: PS509: amino acid recognition protein, SEQ ID NO: 137 (protein)
chain: MICGHGFKTGEPTYSCRDCATDPTCVLCISCFQKSPHREHRYKMSASGGGGYCDCGDPEAWKIEPFCEQHKP
modifications: Lottia gigantean
B26: PS504: amino acid recognition protein, SEQ ID NO: 132 (protein, listed as Galleria mellonella)
chain: MLCGKVFKQGEPAYSCRECGMDNTCVLCVECFKVSPHRHHKYKMGQSGGGGCCDCGDTEAWKRDPFCERHAK
B27: PS519: amino acid recognition protein, SEQ ID NO: 147 (protein, listed as Manduca sexta)
chain: MLCGRVFKQGEPAYSCRECGMDNTCVLCVECFKVSAHRHHKYKMGQSGGGGCCDCGDTEAWKRDPFCELHAA
B28: PS521: amino acid recognition protein, SEQ ID NO: 149 (protein)
chain: MLCGRVFRSGEPTYSCRDCAVDPTCVLCIDCFNNGAHRKHKYRMSTSSGGGYCDCGDKEAWKTDPLCEIHRK
modifications: Lingula anatine
B29: PS530: amino acid recognition protein, SEQ ID NO: 158 (protein, listed as Acropora millepora)
chain: MLCGKVFKVGEPTYSCRDCGYDNTCVLCINCFQKSIHKNHHYKMNTSGGGGVCDCGDVEAWKEGEACEIHQQ
B30: PS523: amino acid recognition protein, SEQ ID NO: 151 (protein, listed as Saccharomycetaceae sp.)
chain: MAKSHRHTGRNCGRAFQPGEPLYRCQECAYDDTCVLCISCFNPDDHVNHHVSTHICNELHDGICDCGDAEAWNVPLHCKAEED
B31: PS514: amino acid recognition protein, SEQ ID NO: 142 (protein, listed as Tribolium castaneum)
chain: MVCGRVFKLGEPTYSCRECGMDNTCVLCVNCFKNSEHRFHKYKMGTSQGGGCCDCGDVEAWKKAPFCDVHIA
B32: PS502: amino acid recognition protein, SEQ ID NO: 130 (protein, listed as Helobdella robusta)
chain: MVCLKVFKLGEPTYSCRSVTCGMDPTCVLCVDCFQNSSHKLHKYKMSTSGGGGYCDCGDLEAWKADPLCDLHKL

Tested on: amino acid at a terminal position of a polypeptide
Settings: Table 2; amino acid at terminal position (phosphotyrosine also internal); inferred from literature and/or demonstrated by the inventors; cited from earlier work

Molecule | Binding Pref.
B1 | K, R, H
B2 | K, R, H
B3 | K, R, H
B4 | K, R, H
B5 | K, R, H
B6 | K, R, H
B7 | K, R, H
B8 | K, R, H
B9 | K, R, H
B10 | K, R, H
B11 | K, R, H
B12 | K, R, H
B13 | K, R, H
B14 | K, R, H
B15 | K, R, H
B16 | K, R, H

Molecule | Binding Pref.
B17 | K, R, H
B18 | K, R, H
B19 | K, R, H
B20 | K, R, H
B21 | K, R, H
B22 | K, R, H
B23 | K, R, H
B24 | K, R, H
B25 | K, R, H
B26 | K, R, H
B27 | K, R, H
B28 | K, R, H
B29 | K, R, H
B30 | K, R, H
B31 | K, R, H
B32 | K, R, H
